The text below walks through data of patent US20230050380A1 (CHIOME BIOSCIENCE, published 2023).

Residue numbers refer to the chain shown, from its start.

The target in the assay is T1, full-length hCDCP1 with N-terminal c-Myc tag (expression vector GS01), on Ba/F3-hCDCP1 cells or … (human, UniProt Q9H5V8 30-836).
T1 construct: also called human CDCP1; hCDCP1 forced expression cells
T1 sequence: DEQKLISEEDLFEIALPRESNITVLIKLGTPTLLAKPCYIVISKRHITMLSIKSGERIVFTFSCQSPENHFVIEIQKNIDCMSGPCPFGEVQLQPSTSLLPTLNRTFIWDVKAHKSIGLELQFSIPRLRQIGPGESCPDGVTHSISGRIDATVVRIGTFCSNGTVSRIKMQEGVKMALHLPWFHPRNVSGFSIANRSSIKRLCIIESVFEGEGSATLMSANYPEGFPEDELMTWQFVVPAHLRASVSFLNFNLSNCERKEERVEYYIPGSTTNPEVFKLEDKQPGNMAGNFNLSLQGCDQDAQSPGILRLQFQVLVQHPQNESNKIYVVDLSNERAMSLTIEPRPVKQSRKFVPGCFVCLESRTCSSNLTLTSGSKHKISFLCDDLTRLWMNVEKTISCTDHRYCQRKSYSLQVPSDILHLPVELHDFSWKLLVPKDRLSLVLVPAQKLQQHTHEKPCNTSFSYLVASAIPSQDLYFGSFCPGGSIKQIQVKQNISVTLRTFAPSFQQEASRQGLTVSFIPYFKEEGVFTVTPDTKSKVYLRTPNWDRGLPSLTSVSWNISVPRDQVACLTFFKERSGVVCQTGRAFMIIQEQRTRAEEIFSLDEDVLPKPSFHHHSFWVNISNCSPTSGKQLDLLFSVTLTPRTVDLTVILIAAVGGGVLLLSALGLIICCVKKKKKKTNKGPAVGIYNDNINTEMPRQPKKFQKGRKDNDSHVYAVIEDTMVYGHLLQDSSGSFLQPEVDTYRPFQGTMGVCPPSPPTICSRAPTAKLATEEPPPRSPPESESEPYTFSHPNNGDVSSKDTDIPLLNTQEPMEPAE
The experiment in a line: flow cytometry on Ba/F3-hCDCP1 cells. In general terms: In flow cytometry, cells or beads pass a laser one at a time.

B1: h14A043VH1/VL1 (antibody, human IgG1, kappa)
heavy: not shown
light: EIVLTQSPATLSLSPGERATLSCSASSSVSYLYWYQQKPGQAPRPWIYLTSNLASGVPARFSGSGSGTDFTLTISSLEPEDFAVYYCQQWSSNPFTFGGGTKVEIKRTVAAPSVFIFPPSDEQLKSGTASVVCLLNNFYPREAKVQWKVDNALQSGNSQESVTEQDSKDSTYSLSSTLTLSKADYEKHKVYACEVTHQGLSSPVTKSFNRGEC
notes: humanized antibody, human IgG1/kappa constant regions; also called h14A043VH1/VL1-biotin (biotinylated form)
Turning to B1, the binding result is listed as “binds”.

B2: h14A043VH1/VL3 (antibody, human IgG1, kappa)
heavy: not shown
light: B1 light with T5I
notes: humanized antibody, human IgG1/kappa constant regions; also called h14A043VH1/VL3-biotin (biotinylated form)
As to B2, the binding result is “binds”.

B3: h14A043VH1/VL2 (antibody, human IgG1, kappa, V domains shown)
VH: QVQLVQSGAEVKKPGSSVKVSCKASGFNIKDYYMNWVRQAPGQGLEWIGWIDPENANTIYDPKFQGRVTITADESTSTAYMELSSLRSEDTAVYYCYGSSYRFTYWGQGTLVTVSS
VL: EIVLTQSPATLSLSPGERATLSCSASSSVSYLYWYQQKPGQAPRPWIYLTSNLASGVPARFSGSGSGTDYTLTISSLEPEDFAVYYCQQWSSNPFTFGGGTKVEIKR
notes: humanized antibody, human IgG1/kappa constant regions; also called h14A043VH1/VL2-biotin (biotinylated form)
Take B3: the binding result is given as “binds”.

B4: h14A043VH2/VL2 (antibody, human IgG1, kappa, V domains shown)
VH: B3 VH with V68A
VL: B3 VL
notes: humanized antibody, human IgG1/kappa constant regions
With B4, the binding result was “binds”.

B5: h14A043VH2/VL1 (antibody, human IgG1, kappa)
heavy: not shown
light: B1 light
notes: humanized antibody, human IgG1/kappa constant regions; also called h14A043VH2/VL1-biotin (biotinylated form)
For B5, the binding result is listed as “binds”.

B6: h14A043VH2/VL3 (antibody, human IgG1, kappa)
heavy: not shown
light: B1 light with T5I
notes: as for B4
In the case of B6, the binding result is listed as “binds”.

B7: mh14A025HCv21/LCori (antibody, human IgG1, kappa, V domains shown)
VH: EVQLQESGAELVRPGALVKLSCKASGFNIKDYYMHWVKQRPEQGLEWIGWIDPETGNTIYDPKFQGKASITADTSSNTAYLQLSSLTSEDTAVYYCGGLLYAMDYWGQGTSVTVSS
VL: DIQMTQTTSSLSASLGDRVTISCRASQDISNYLNWYQQKPDGTVKLLIYFTSRLHSGVPSRFSGSGSGTDYSLTISNLEQEDIATYFCQQGNTLPRTFGGGTKLEIRR
notes: mouse-human chimeric antibody, human IgG1/kappa constant regions
Regarding B7, the binding result is recorded as “binds”.

B8: mh14A043HCv1/LCori (antibody, human IgG1, kappa, V domains shown)
VH: B7 VH with H35N, T55S, G97Y, L99S, L100S, A102R, M103F, D104T, S111L
VL: QIVLIQSPALMSASPGEKVTMTCSASSSVSYMYWYQQKPRSSPKPWIYLTSNLASGVPARFSGSGSGTSYSLTISSMEAEDAATYYCQQWSSNPFTFGSGTKLEIKR
notes: as for B7
Regarding B8, the binding result was “binds”.

B9: mh14A043HCv2/LCv1 (antibody, human IgG1, kappa, V domains shown)
VH: B7 VH with H35N, T55N, G56A, G97Y, L99S, L100S, A102R, M103F, D104T, S111L
VL: B8 VL with M32L
notes: as for B7
Take B9: the binding result is on record as “binds”.

B10: mh14A043HCv1/LCv1 (antibody, human IgG1, kappa, V domains shown)
VH: B7 VH with H35N, T55S, G97Y, L99S, L100S, A102R, M103F, D104T, S111L
VL: B8 VL with M32L
notes: as for B7
For B10, the binding result is on record as “binds”.

B11: mh14A043HCv2/LCori (antibody, human IgG1, kappa, V domains shown)
VH: B7 VH with H35N, T55N, G56A, G97Y, L99S, L100S, A102R, M103F, D104T, S111L
VL: B8 VL
notes: as for B7
B11: the binding result is listed as “binds”.

B12: mh14A043HCori/LCv1 (antibody, human IgG1, kappa, V domains shown)
VH: B7 VH with H35N, T55N, G97Y, L99S, L100S, A102R, M103F, D104T, S111L
VL: B8 VL with M32L
notes: as for B7
For the molecule B12, the binding result is “binds”.

B13: mh14A025HCv24/LCori (antibody, human IgG1, kappa, V domains shown)
VH: B7 VH with T55W
VL: B7 VL
notes: as for B7
Consider B13, for which the binding result is “binds”.

B14: mh14A063HCori/LCv1 (antibody, human IgG1, kappa, V domains shown)
VH: EVQLQESGGGLVQPGGSLKLSCAASGFTFSSYTMSWVRQTPEKRLEWVAYISNGGGSTYYPDTVKGRFTISRDNAKNTLYLQMSSLKSEDTAMYYCARYDLGFAYWGQGTLVTVSS
VL: NIVLTQSPASLAVSLGQRATISCRASESVDSYGNSFLHWYQQKPGQPPKLLIFLASNLESGVPARFSGSGSRTDFTLTIDPVEADDAATYYCQQNNEDPWTFGGGTNLEIKR
notes: as for B7
In the case of B14, the binding result is on record as “binds”.

B15: mh14A063HCv2/LCv1 (antibody, human IgG1, kappa, V domains shown)
VH: B14 VH with G54A
VL: B14 VL
notes: as for B7
Regarding B15, the binding result is given as “binds”.

B16: mh14A063HCv1/LCv1 (antibody, human IgG1, kappa, V domains shown)
VH: B14 VH with N53S
VL: B14 VL
notes: as for B7
Regarding B16, the binding result was “binds”.

B17: mh14A063HCv2/LCori (antibody, human IgG1, kappa, V domains shown)
VH: B14 VH with G54A
VL: B14 VL with L37M
notes: as for B7
With B17, the binding result is on record as “binds”.

B18: mh14A063HCv1/LCori (antibody, human IgG1, kappa, V domains shown)
VH: B14 VH with N53S
VL: B14 VL with L37M
notes: as for B7
In the case of B18, the binding result is listed as “binds”.

B19: h12A041VH1/VL (antibody, human IgG1, kappa, V domains shown)
VH: QVTLRESGPALVKPTQTLTLTCTFSGFSLSTSGMGVSWIRQPPGKALEWLAHIYWDDDKRYNPSLKSRLTISKDTSKNQVVLTMTNMDPVDTATYYCARSGSYYGSSLDSWGQGTTVTVSS
VL: DIVMTQSPLSLPVTPGEPASISCRSSQSIVHSSGNTYLEWYLQKPGQSPQLLIYKVSNRFSGVPDRFSGSGSGTDFTLKISRVEAEDVGVYYCFQGSHVPWTFGGGTKVEIKR
notes: humanized antibody, human IgG1/kappa constant regions; also called h12A041VH1/VL-biotin (biotinylated form)
As for B19, the binding result is “binds”.

B20: h12A041VH2/VLB (antibody, human IgG1, kappa, V domains shown)
VH: B19 VH with A46G
VL: B19 VL with S28N, S33D
notes: as for B4
On to B20, for which the binding result was “binds”.

B21: h12A041VH1A/VLB (antibody, human IgG1, kappa, V domains shown)
VH: B19 VH with S32F
VL: B19 VL with S28N, S33D
notes: as for B4
For the molecule B21, the binding result is listed as “binds”.

B22: h12A041VH1A/VL (antibody, human IgG1, kappa, V domains shown)
VH: B19 VH with S32F
VL: B19 VL
notes: humanized antibody, human IgG1/kappa constant regions; also called h12A041VH1A/VL-biotin (biotinylated form)
As to B22, the binding result is “binds”.

B23: h12A041VH2/VL (antibody, human IgG1, kappa, V domains shown)
VH: B19 VH with A46G
VL: B19 VL
notes: as for B4
In the case of B23, the binding result is given as “binds”.

B24: h12A041VH1/VLB (antibody, human IgG1, kappa, V domains shown)
VH: B19 VH
VL: B19 VL with S28N, S33D
notes: humanized antibody, human IgG1/kappa constant regions; also called h12A041VH1/VLB-biotin (biotinylated form)
With B24, the binding result was “binds”.

B25: h12A041VH2/VLA (antibody, human IgG1, kappa, V domains shown)
VH: B19 VH with A46G
VL: B19 VL with H31Y
notes: as for B4
In the case of B25, the binding result is “binds”.

B26: h12A041VH2A/VLA (antibody, human IgG1, kappa, V domains shown)
VH: B19 VH with S32F, A46G
VL: B19 VL with H31Y
notes: as for B4
Consider B26, for which the binding result is listed as “binds”.

B27: h12A041VH1/VLA (antibody, human IgG1, kappa, V domains shown)
VH: B19 VH
VL: B19 VL with H31Y
notes: humanized antibody, human IgG1/kappa constant regions; also called h12A041VH1/VLA-biotin (biotinylated form); h12A041VH1NLA-biotin
For B27, the binding result was “binds”.

B28: h12A041VH1A/VLA (antibody, human IgG1, kappa, V domains shown)
VH: B19 VH with S32F
VL: B19 VL with H31Y
notes: as for B4
With B28, the binding result is on record as “binds”.

B29: h12A041VH2A/VL (antibody, human IgG1, kappa, V domains shown)
VH: B19 VH with S32F, A46G
VL: B19 VL
notes: as for B4
As for B29, the binding result is “binds”.

B30: h12A041VH2A/VLB (antibody, human IgG1, kappa, V domains shown)
VH: B19 VH with S32F, A46G
VL: B19 VL with S28N, S33D
notes: as for B4
With B30, the binding result is listed as “binds”.
